# Laboratory results: patent publication US9290540B2, “Angiotensin Type 2 (AT2) receptor agonists and uses thereof” (Lanthio Pep B.V., priority 2010, dated 2016)
# Bridges are numbered along the chain shown (N, C = ends). Where no end group is shown, it is not given here. [ ]: non-standard residue; d: D form.
# Legend:
# [1] = molecular target: T1, AT2 receptor (Homo sapiens, UniProt P50052); assay: Inhibition of peptide-induced ERK phosphorylation by AT2 receptor antagonist PD123319 in HBE cells; assay type: cell-based; conditions: for inhibition of peptide-induced ERK1 phosphorylation by PD123319 / inhibition of peptide-induced ERK2 phosphorylation by PD123319 / inhibition of peptide-induced ERK phosphorylation (ERK1 and ERK2) by PD123319 / inhibition of peptide-induced (total) Erk phosphorylation by PD123319: 20 min preincubation with 10^-6 M PD123319, peptide 10^-6 M
# T1 construct: stimulate extracellular-signal-regulated kinase (ERK) phosphorylation in human bronchial epithelial (HBE) cells; endogenous in cells; host or cells: HBE (immortal human bronchial epithelial cell line)
# T1 sequence (P50052 1-363): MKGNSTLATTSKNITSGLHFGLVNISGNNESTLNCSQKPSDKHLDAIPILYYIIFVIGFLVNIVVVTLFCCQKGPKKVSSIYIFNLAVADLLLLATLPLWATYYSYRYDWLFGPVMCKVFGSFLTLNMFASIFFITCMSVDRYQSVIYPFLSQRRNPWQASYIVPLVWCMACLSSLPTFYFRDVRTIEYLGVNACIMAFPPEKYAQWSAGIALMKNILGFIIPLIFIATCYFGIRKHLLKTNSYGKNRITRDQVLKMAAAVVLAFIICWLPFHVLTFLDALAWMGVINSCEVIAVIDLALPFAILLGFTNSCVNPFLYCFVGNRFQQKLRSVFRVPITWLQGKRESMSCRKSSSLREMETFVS
# Procedure: (§1) Peptides were purchased from JPT: linear DDRVAIHA (SEQ ID No: 4), dKDRVdCIHC (SEQ ID No: 9), KDRVdCIHC (SEQ ID No: 9), DDRVdCIHC (SEQ ID No: 11), IDRVdCIHC (SEQ ID No: 12), NDRVdCIHC (SEQ ID No: 13), SDRVdCIHC (SEQ ID No: 14), in which dK stands for D-lysine and dC stands for D-cysteine. The AT2 receptor antagonist PD123319 was from Axon Medchem. Studies were performed using the immortal human bronchial epithelial cell line HBE (Cozens A L, et al. 1994 CFTR expression and chloride secretion in polarized immortal human bronchial epithelial cells. Am J Respir Cell Mol Biol 10:38-47). All culture media and supplements, multiwell plates and flasks were from PAA.
# (§2) Cell culture. Multi-well plates received 1 ml from a coating solution (for 112 ml: F12 medium 100 ml; bovine serum albumin 10 ml (1 mg/ml); collagen I, Bovine 1 ml (3 mg/ml); human fibronectin 1 ml (1 mg/ml)) and were incubated for 6 hours at 37° C. and 5% CO2. Subsequently the coating solution was discarded and the plates were dried for 2 hours in the laminar flow cabinet. In each 12 well plate 8.10^4 HBE cells were seeded per well followed by incubation for 24 hours at 37° C. and 5% CO2. Cell culture medium was prepared by adding 432.2 ml MEM 199 basic medium to 50 ml […] FCS and 5 ml L-Glutamin (200 mM), 10 ml Penicillin/Streptomycin (10.000 units/ml/10 mg/ml) and 2.8 ml Gentamycin (10 mg/ml). At 85-90% confluency medium was replaced by medium without FCS and growth factors followed by again 24 hours incubation at 37° C. and 5% CO2.
# (§3) Erk1 and Erk2 phosphorylation. The medium was removed from each well and was washed once with HBS buffer without calcium and magnesium. The capacity of peptide at 10^−6 M was tested after 20 min preincubation with either 10^−6 M of PD123319 or concomitant controls, followed by washing. Challenges and concomitant controls were performed at 1 ml/well during 10 min. All samples were tested in triplicate. After the challenge 150 μl RIPA buffer (RIPA, TBS, 1% Nonidet P-40, 0.5% sodium deoxycholate, 0.1% SDS, 0.004% sodium azide, 1% PMSF (2 mM final concentration), 1% sodium orthovanadate (1 mM final concentration) and 1% protease inhibitor cocktail) was added to each well. The plates were incubated for 15 minutes at 4° C. The lysed cells were scraped from the surface. The lysate was transferred to 1.5 ml eppendorf cups and centrifuged 5 minutes at 12.700×g to pellet the cell debris. The supernatant was transferred into new cups and of a 5 al sample the total protein content was determined via the DC protein assay according to lowry (Bio-Rad), with BSA used as calibration protein. Protein was separated on gel and blotted with p-ERK mouse monoclonal IgG2a and mouse GAPDH anti-rat IgG1 antibodies and as a second antibody goat anti-mouse IgG-AP. The phosphorylated Erk proteins and GAPDH were stained with BCIP/NBT and quantified relative to GAPDH and total Erk using TotalLab software. Alternatively, total Erk phosphorylation was measured after permeabilization of the non-detached cells.
# In this example it is investigated whether or not cAng-(1-7) analogs with an N-terminal extension of two amino acids stimulate the AT2 receptor.
# Thioether bridged peptide synthesis and cell culture and measurement of Erk1- and total Erk phosphorylation were essentially as in example 2.
# [2] = test system: extracellular-signal-regulated kinase (ERK) phosphorylation in human bronchial epithelial (HBE) cells; assay: Peptide-induced Erk1/Erk2/total Erk phosphorylation in HBE cells; assay type: cell-based; conditions: peptide 10^-6 M, 10 min challenge
# Procedure: as §1, §2
# as §3, with “The lysate was transferred to 1.5 ml eppendorf cups and centrifuged 5 minutes at 12.700×g to pellet the cell debris.” left out, “Protein was separated on gel and blotted with p-ERK mouse monoclonal IgG2a and mouse GAPDH anti-rat IgG1 antibodies and as a second antibody goat anti-mouse IgG-AP.” left out, “cells. […]” for “cells.”
# [3] = test system: precontracted aorta rings; assay: Vasodilation on phenylephrine-precontracted aorta rings (organ bath); design: species or system Sprague Dawley rat; conditions: sub-nM concentration; peptides added cumulatively 0.1 nM to 1 μM; rings precontracted with 30 nM phenylephrine
# Procedure: Peptides: KDRVdCIHC (SEQ ID No: 9), and YDRVdCIHC (SEQ ID No: 10) wherein dC stands for D-cysteine were purchased from JPT. Specified pathogen-free male Sprague Dawley rats (SD) (Harlan, Zeist, The Netherlands), weighing […] were used. Prior to the experiment, the animals were housed together with free access of tap water and solid chow (Harlan, Zeist, The Netherlands) in a temperature and humidity controlled room and a 12/12 h light/dark cycle. All protocols described were approved by the University of Groningen Committee for Animal Experimentation.
# Thioether-bridged peptides were obtained from the disulfide bridged peptide via base-asisted sulfur extrusion as previously (Galande A K, et al 2003. Biopolymers 71:534-551).
# (§4) Vasodilation on precontracted aorta-rings. Arterial rings for organ bath experiments were prepared as described previously (Kluskens L D, et al. 2009. J Pharmacol Exp Ther 328:849-54). Before testing the vasodilating effects of the peptides the rings were precontracted to 50% of their maximum contraction level with 30 nM phenylephrine (PE). The 5,8 thioether bridged peptides KDRV[AIHA]C (SEQ ID No: 3) or YDRV[AIHA]c (SEQ ID No: 5) were added cumulatively in a range of 0.1 nM to 1 μM. Vasodilation data are represented as percentage of relaxation of 30 nM PE contraction.
# [4] = molecular target: T2, Mas receptor (Rattus norvegicus, UniProt P12526); assay: Peptide-induced vasodilation of precontracted aorta rings in presence of Mas receptor antagonist D-Pro7-Ang-(1-7); design: species or system Sprague Dawley rat; conditions: D-Pro7-Ang-(1-7) 0.1 μM, 10 min before 30 nM PE
# T2 construct: vasodilation in precontracted aorta rings from Sprague Dawley rats; from tissue; host or cells: aorta rings of male Sprague Dawley rats
# T2 sequence (P12526 1-324): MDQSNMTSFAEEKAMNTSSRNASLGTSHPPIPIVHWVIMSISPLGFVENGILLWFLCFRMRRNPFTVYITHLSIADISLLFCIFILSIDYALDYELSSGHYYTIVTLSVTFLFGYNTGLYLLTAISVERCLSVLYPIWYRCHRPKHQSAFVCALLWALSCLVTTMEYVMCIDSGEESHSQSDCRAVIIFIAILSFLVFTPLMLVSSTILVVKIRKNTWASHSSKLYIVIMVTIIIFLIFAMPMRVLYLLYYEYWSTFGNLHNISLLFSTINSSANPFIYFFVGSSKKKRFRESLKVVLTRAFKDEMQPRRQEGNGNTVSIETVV
# Procedure: as §4
# D-Pro7-ang-(1-7), ang-(1-7) with a D-isomer of proline at position 7, which is a Mas-receptor antagonists, was from JPT and purified by HPLC prior to use. This antagonist was used as in Kluskens et al 2009: 10 min before addition of 30 nM PE at a concentration of 0.1 μM. Other materials and methods were as in example 1.
substance,measurement,setting,value
Asn-Asp-Arg-Val-Abu/Ala-Ile-His-Abu/Ala (NDRVAIHA; not fully specified; thioether bridge (lanthionine); cyclic AT2 receptor antagonist) [N-cAng(1-7)],interaction with / stimulation of the AT2 receptor (conclusion from PD123319 sensitivity of ERK phosphorylation),[1],did not or hardly interact with the AT2 receptor
same,inhibition of peptide-induced ERK1 phosphorylation by PD123319,[1],less
same,inhibition of peptide-induced ERK2 phosphorylation by PD123319,[1],less or absent
Asp-Asp-Arg-Val-Abu/Ala-Ile-His-Abu/Ala (DDRVAIHA; not fully specified; thioether bridge (lanthionine); cyclic AT2 receptor antagonist) [DcAng-(1-7)],peptide-induced Erk1 phosphorylation,[2],induced Erk1 phosphorylation
same,inhibition of peptide-induced ERK1 phosphorylation by PD123319,[1],inhibited
same,inhibition of peptide-induced ERK phosphorylation (ERK1 and ERK2) by PD123319,[1],complete
DDRVAIHA (cyclic AT2 receptor antagonist) [reference compound],peptide-induced (total) Erk phosphorylation,[2],induced Erk phosphorylation
same,inhibition of peptide-induced (total) Erk phosphorylation by PD123319,[1],could not be inhibited
IDDRVAIHA (not fully specified) [reference compound],peptide-induced (total) Erk phosphorylation,[2],induced Erk phosphorylation
same,inhibition of peptide-induced (total) Erk phosphorylation by PD123319,[1],no inhibition at all
Ile-Asp-Arg-Val-Abu/Ala-Ile-His-Abu/Ala (IDRVAIHA; not fully specified; thioether bridge (lanthionine); cyclic AT2 receptor antagonist) [IcAng-(1-7)],peptide-induced Erk1 phosphorylation,[2],induced Erk1 phosphorylation
same,inhibition of peptide-induced ERK1 phosphorylation by PD123319,[1],inhibited
same,inhibition of peptide-induced ERK phosphorylation (ERK1 and ERK2) by PD123319,[1],complete
"Lys-Asp-Arg-Val-Abu/Ala-Ile-His-Abu/Ala (KDRVAIHA; not fully specified; thioether bridge (lanthionine); cyclic AT2 receptor antagonist) [KcAng-(1-7), cAng-(1-7) N-terminally extended with Lys]",vasodilation of precontracted aorta rings (percentage of relaxation of 30 nM PE contraction),[3],significant vasodilating capacity
same,inhibition of peptide-induced ERK phosphorylation (ERK1 and ERK2) by PD123319,[1],complete
same,inhibition of peptide-induced vasodilation by Mas receptor antagonist D-Pro7,[4],does not inhibit
"ScAng-(1-7): thioether bridged cAng-(1-7) with Ser at position -1, made from SDRVdCIHC (SEQ ID No: 14) (SDRV[dC]IHC; bridge 5-8; not fully specified (bridges); also: thioether formed from the disulfide precursor by sulfur extrusion)",interaction with / stimulation of the AT2 receptor (conclusion from PD123319 sensitivity of ERK phosphorylation),[1],did not or hardly interact with the AT2 receptor
same,inhibition of peptide-induced ERK1 phosphorylation by PD123319,[1],less
same,inhibition of peptide-induced ERK2 phosphorylation by PD123319,[1],did not affect
same,inhibition of peptide-induced ERK2 phosphorylation by PD123319,[1]; listed as Ser,less or absent
"Tyr-Asp-Arg-Val-Abu/Ala-Ile-His-Abu/Ala (YDRVAIHA; not fully specified; thioether bridge (lanthionine); cyclic AT2 receptor antagonist) [YcAng-(1-7), cAng-(1-7) N-terminally extended with Tyr]",vasodilation of precontracted aorta rings (percentage of relaxation of 30 nM PE contraction),[3],significant vasodilating capacity
same,inhibition of peptide-induced vasodilation by Mas receptor antagonist D-Pro7,[4],does not inhibit
